Reference: article PMC7422855

Molecular target: human n-Glyceraldehyde-3-phosphate dehydrogenase (human) (UniProt P04406)
Experiment: SEC-MALS; Superdex S200 10/300 in 20 mM HEPES pH 7.5, 100 mM NaCl, 1 mM TCEP; 18-angle MALS detector with differential refractive index detector

stoichiometry N: 4
Substance: human n-Glyceraldehyde-3-phosphate dehydrogenase, P04406 1-335 (enzyme; Cys152 partially oxidised to cysteine S-sulfonic acid (average occupancy 0.31±0.17 over 20 copies in crystal forms A, C and D; not significant in crystal form B); Cys152 partially oxidised to cysteine S-sulfonic acid (average occupancy 0.31±0.17 over 20 copies in crystal forms A, C and D; not significant in crystal form B); other documents disagree on this pair)
